In paper PMC10478762:

Biological target: NADPH-dependent imine reductase from Ajellomyces dermatitidis (Ajellomyces dermatitidis)
Test: crystal structure; three crystal forms, sitting drop, 298 K, protein at 40 mg/ml in 50 mM Tris-HCl pH 7.5, 300 mM NaCl; data set 1 P3(1)21 with NADPH4 (one dimer in the asymmetric unit), data set 2 C2(1) with NADP+ (nine molecules, four and a half dimers), data set 3 P3(1)21 with NADP+ and 2,2-difluoroacetophenone (half-dimer, partner by crystal symmetry)

A stoichiometry N of 2 was found for “NADPH-dependent imine reductase from Ajellomyces dermatitidis (enzyme)” in this work.
